The results in this text go back to the supplement of paper PMC12636428.

This data set has as its system Saccharomyces cerevisiae. The data set is described as follows: transcriptional activation domain activity (GFP:mCherry ratio, weighted mean of sorted bins, harmonized to initial dataset scale) (arbitrary fluorescence ratio units); higher = stronger transcriptional activation. To be noted: beta-estradiol 1 µM; induction time 4 h. The method, boiled down: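 Protein tiles carrying barcodes and fused to an estradiol-inducible synthetic transcription factor were placed at the URA3 locus of yeast diploids with a GFP reporter. Following 4 hours at 30 °C in SC with 1 uM beta-estradiol, cells were sorted into 8 GFP:mCherry bins, barcodes were sequenced, and tiles with fewer than 50 reads were discarded. Activation activity is given as the read-weighted mean of bin median fluorescence, averaged across barcodes and linearly mapped to the initial dataset scale.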

Turning to “MIFSNLLVLSLLCSLFLFFYFFFYVLCFFLFAYTLSRSLYITILGFFDLVIVF”, the “transcriptional activation domain activity” value turned out to be 66200.
Consider “MIGDGGRVFRVHSSLSLSFVIFFFSVLLFFFCPFSFVFYCIYAFLVPGLVVLV”, for which the “transcriptional activation domain activity” value is 35200.
Turning to “MIGHDYLLVVVPIPILSLLHVSLLPYFFYFFVLVLVFLYLFLLRFLSFLLLLL”, the “transcriptional activation domain activity” value was 65700.
In the case of “MIGHWFVLLNLISNWIVLSSFSILFYIYIYMPLYCHYAPFIFMLFLLYIPLLI”, the “transcriptional activation domain activity” value amounted to 48800.
“MIGVCWVGGGIGVWCFCELTSSSFYPIDLVDFFFSFFCFLNFLLAFDFGLLLA”: the “transcriptional activation domain activity” value came to 57000.
Consider “MIGVVCALYLFFFPSFFLLFFFSTLLDDDTLIIYKFFLLWESWFVAFILFFYL”, for which the “transcriptional activation domain activity” value came to 24900.
To “MIHCMLLVGSTCPFFSLFLIAYFYDAIYDLAQFDMWSLLLCIYWDISPIFLFP” belongs 48100; to “MIHGLQSYNLSFLIFFLFLLSSLFVLFVMLSKFAFVLFVDTLYCLIPYVFLFF”, 42500; to “MIHLLQYAYLFLFLLMLYDTLCHAILFFLTLNLTNWWYPIPFNMILHFIVPLF”, 45300.
Regarding “MIHSAIIAWYCVFGLVFLLIVICIFHQFSSHRSSPWYFIQNWTRAFGFLSYIL”, the “transcriptional activation domain activity” value was determined as 66700.
To “MIHSIAVYIMLISSTLTHSLISLLFYILSLYVGIFYTYHILFKVLFICQWFLF” belongs 76200; to “MIHVPLIIFYIILNLFVAYLCLLIFSYYYRMIAQLLYNQCMIQMQPIIHQIKE”, 53500.
Take “MIHYPPLLQSPRLVCTLLCSVDVIWLWFNHLFTLFITWRGVLFFLSFFTLLFF”: the “transcriptional activation domain activity” value was determined as 51600.
As for “MIIASLVPGGGIGFFYFVFWSLLWLRLFLAFLSIMGSFLCLFTCYMPSFLFFS”, the “transcriptional activation domain activity” value is 33400.
“MIIFFFFFFLLCHWINTGIIFHVLDLMVKFLFFIFVDQQKKLSLLLFIHFAWL”: the “transcriptional activation domain activity” value turned out to be 54700.
The same measure for “MIIGMWLFCHVGSSFSVYHMFPLLYFRLLLCYLVFWSCFLLTFSKVSFSFLFA”: 54400; for “MIIIDIFLSIYMILSYLYLHLFIFHVHMNPSYFIYFLAFSVKEIFIVSWFFFI”: 57300; for “MIIIIIIIMGNRFMMMSFLFAFFSLFFFLMKFFLSFSFFLFLSFLLIMFAISL”: 62100.
On to “MIILGRMGYSHVLLLPFFNSICFSFLFLPHSLCCLHFNSFYTYFLLLPHPHLF”, for which the “transcriptional activation domain activity” value was found to be 61900.
The same measure for “MIISAVYITYFFSLSYLFFPLYLFIVYPFFSFLFNLLAKDTFIVDTYIIVFFA”: 50600.
For “MIITFYTFFSFFPFFISFSLSLFSLRYFFFFFSFLSLSFFFFLFFLILIHLFL”, the “transcriptional activation domain activity” value was found to be 14400.
“MIITLSRLFFFFFFFPVRFLAFLNHFFLFFFFFWLRWGLSVCFFILSWPGEKS”: the “transcriptional activation domain activity” value is 46400.
With “MIIVFVFFSLFFFLPFLFPLAFFFLFLFPFFLPSYFPSYSLRCSYEGRPSFFF”, the “transcriptional activation domain activity” value came to 47100.
As to “MIIVLLVKVVVFNLMCKCLMVNVGRCFGEIVSCTFYFWKHILFYYLRSVVTRL”, the “transcriptional activation domain activity” value was 37700.
On to “MIIVRSIFYCLGLIALLEFMLIRVASAFAISSLLTNLAYNKPFFLTYLSCATH”, for which the “transcriptional activation domain activity” value is 67100.
In the case of “MIIYYIGSIFWCLGNLQVGGFFGFDGIWSYCIFWRNWVRDVFGLSVLIGVVNY”, the “transcriptional activation domain activity” value is 44900.
For “MIKFSLLIFLIVFILDYLIFFCFFFFFLFFYFFIQFTLFMVCGGDLIYGFING”, the “transcriptional activation domain activity” value is 43200.
With “MIKKISFFLYIFALRSSFFLFLFVLYFFFPLFFFFFFSFSFFFLLLVSVATLE”, the “transcriptional activation domain activity” value was determined as 12200.
As to “MIKRLRWRRKIERNLPEFRLIPFLQRLLWLLLLLQFLLHLLHPPILCLHRLRY”, the “transcriptional activation domain activity” value is 50700.
To “MILARMLHIYIYKEIVDLTNVCIKCIKIISSEVRRVVLFNLDQTYETIPYIVE” belongs 66600; to “MILFFFAHRGLFLVYSASFCLCCDCLYFFLVYTFFFTLHNPFFLVPLFFSIIL”, 62900; to “MILHSSYLPLGVPPFSIYYILHTLGHSINKITKLLLSNLILRFLNCCTQLIVR”, 53400.
Consider “MILIVFSLLLSFPMFLERVLFFPLSFLFFFSPSFCLSYTQPSPLTMPFFSYFC”, for which the “transcriptional activation domain activity” value came to 68300.
For “MILKHIHSCHALASFVVSLHSFPLLFSCPSRGLCGIVALETVFLFFFFPLFQL”, the “transcriptional activation domain activity” value came to 75600.
With “MILLPSLWLLSLVVIFPVCYFYIQKSFPFPSSLFCIVCPITIYIINILSSHVL”, the “transcriptional activation domain activity” value is 33900.
Consider “MILLQCIPPFFLFSFLYSFVFPSPLPTIYDLSFSVSFFLFLFPWLVEIQLCCC”, for which the “transcriptional activation domain activity” value is 52800.
On to “MILLVSFFFLLLIFFFSIREFRSECIVNDFWSFVYLSAYIVLDVCRIFFFLFW”, for which the “transcriptional activation domain activity” value is 25600.
For “MILMIFTYLLLTIPVVVGLIVASLLHFNFIHLNVLYACSLTSLQLINPCMVLF”, the “transcriptional activation domain activity” value came out at 50000.
For “MILMLLLLLLLLLLLLVMVLLLLLVMVLLVVLLVLLWVLLLMLLWVLLGVLLG”, the “transcriptional activation domain activity” value was 16200.
Consider “MILNGELERCRESLHIVSEYVHSILRLNVLCLRLLYRRMDPSREPVDLFEVAV”, for which the “transcriptional activation domain activity” value was 54500.
With “MILRAFFLLTVYFVCSPFFFLIIYLLFYDRPDSTLSWIWIWIHTFLPSLLFPS”, the “transcriptional activation domain activity” value was 42500.
On to “MILRIWGFHYLYMLVPGWYLCFRFSFFLFYFLFLFLLQFLHITLPFSCLVSFW”, for which the “transcriptional activation domain activity” value turned out to be 46200.
Take “MILTLFALCFFFLDTSSCFLHFISIVSFLISLILCLFFFFFLVASEPFHFIPS”: the “transcriptional activation domain activity” value amounted to 57900.
Turning to “MILTSHLSFILFLFLFLFPFSFSSFLPFYLHYLFILPSILIFPSPPFLPSLFL”, the “transcriptional activation domain activity” value was determined as 51200.
In the case of “MILVQLYIYHHFLNYRCLLHVILFRLKLILPSSSLIFVLGSVESSGNHGTSYD”, the “transcriptional activation domain activity” value was 49200.
For the sequence “MILWARAWISLFLFLYLLFYLFVFSLDIPPFLLYTFFIFILLLCVFACTYRHK”, the “transcriptional activation domain activity” value worked out at 49200.
In the case of “MILWNWILEFHSQTSFTLLLFILFHFIFFAYVPLLTSCYSHLFSFSFSTVSFI”, the “transcriptional activation domain activity” value was 46900.
Regarding “MILYTWFFLRSPFFIFGILWVHGLVDRFLFCHLLVVYFCHLVNFFIHLKYANE”, the “transcriptional activation domain activity” value is 55700.
As for “MIMGKVVGSIPTVSNFLPFSFLFFFSSFLFSSLSSCEVVCLIISFFSFFHWLS”, the “transcriptional activation domain activity” value came out at 55200.
To “MIMILLVAVLYFLLFRFDLLGLFYCQLFLLSSHLRFVLSTLYLNGSHHLLFFF” belongs 34000.
Consider “MIMYKIYFYTHFRLFFYICFYVHVEFSKPILLHVVLKLIKQLVFLSTYHLFLL”, for which the “transcriptional activation domain activity” value is 47900.
To “MINCYAEVALFECCVMFILSPLPPFSLSPQYIFYTLLLYLHYQYFVYRNCALL” belongs 71500; to “MINFWLFIFLSSSLLFLPFFFLYIFFNYYYFFLFTQYIMVTWFFENYQFANAW”, 56200.
For the sequence “MINKKTNPCKILFDPFSSFLFGNLILLSLFLFVDVIFSLPCFLYVCFVFFPSL”, the “transcriptional activation domain activity” value came out at 69200.
The same measure for “MIPFQTGQVMGMLNRIDRLPLKEILTYAMPYLLEKTNVSMIIRQYLWSTLGNH”: 44100; for “MIPGVLLECSFVEFLSFLLDLLLLTLLWIMRLMMMLLLPLFLLLLLIFVYCCV”: 39500.
To “MIPLLSFYYYFYISTCKTELLFSPFIFYFLLFLYIYIKIYTYFLHTPFLLVFE” belongs 47700; to “MIPLQVLSLIDAKNLILLLTKFFSCVALSSCLYWDSCYNLIHGYLVLYKIIYT”, 59400; to “MIPLSHRKHKLISLPYLLVSSWLFLSVTLSIPLLQSYIAKHYSTGLVLFLLYF”, 71900.
For the sequence “MIPPIHSPSFLQSYICFMLILPLPLMSIIVFHPLYFFWLFLSFLLLDYYLLLL”, the “transcriptional activation domain activity” value amounted to 23300.
For the sequence “MIPSSAPLNFFLPFPFQFWFFFDFFFLTVEQPFFLCVVFFLLAFYVMLLYFFI”, the “transcriptional activation domain activity” value was 17900.
The same measure for “MIPSVMIRTSDYSLVIILSLCLVLKMMLICIVCSIESYLTNLDKWLFCLILCK”: 51300; for “MIPSYLSHGRAAIIAIRLVLALYFFWHPLVLFLSSLKLITPCICLHLLFAFWI”: 62500.
On to “MIQTPLFYYLFYILFYFIFIFIYSLLGFFLIFYLFVLFSFHFCFPPPPPFSFF”, for which the “transcriptional activation domain activity” value amounted to 46900.
“MIRDTPKSPSHPPSARSSSSRASSTTSCLSSTSTPAARTSSSSTTARTPVPRP”: the “transcriptional activation domain activity” value came to 28600.
Turning to “MIRFPCLLLYIFAMVYLGVLFFSFFDSCFFFFLHLLGAGWVVHFFLDIFFFYI”, the “transcriptional activation domain activity” value came out at 70600.
For “MIRPFSIYSITLDVFPWLLNLFFLFFFLILFPLLRNFLFCVVSLIQNIQPLCF”, the “transcriptional activation domain activity” value turned out to be 30400.
To “MIRTLFLFFLFIIIFFFFFFFCFLLFFVFLFLFIFLIVVFTIRKSMNLGFVCV” belongs 42400; to “MIRWVFFRGYLGQEGFLSFLFFFVFFSGLSLWERIGYGFFILPSFYMDLLFLA”, 58300; to “MISFFCDIPVFSLLVPFLPLSFMFPMSPMFYYFFIYAVGCSIFLSLLFFSYVI”, 28100.
As to “MISFFNWQVWGGFCGLLFIFFLFDFFLLEFGSTYHLLEDGLNLFLFWYFYDYD”, the “transcriptional activation domain activity” value came to 43600.
“MISFPLFDPVVFNPFLFYDILSSFCSCFSFFFSLLFFPILQYPFLFFSCFFIA”: the “transcriptional activation domain activity” value turned out to be 60100.
On to “MISFVSIVSILLAKSAFLFYFLRQDSFLPNLVFCLCISLLLLLVCLLQWLLVC”, for which the “transcriptional activation domain activity” value is 53700.
For the sequence “MISIAGFYLFFLGYWRFWMLFINLIVGLLATIGHHVSGLACLIFFCGSSVRIS”, the “transcriptional activation domain activity” value worked out at 35300.
